Source: patent US20240230671A9, “COMPOSITIONS AND METHODS FOR IDENTIFICATION OF CROSS-REACTIVE ALLERGENIC PROTEINS AND TREATMENT OF ALLERGIES” (Alladapt Immunotherapeutics, Inc., priority 2021, published 2024)

Assays:
[1] = system: dendritic cells; test: Mouse study: CD4+ T cells from peptide-dosed mice incubated with antigen-loaded dendritic cells; type: cell-based; settings: 50 ug peptide orally for 4 weeks; tetanus toxoid as control
Experimental: Mouse Study: A composition comprising 50 ug of the cross-reactive peptide comprising the MHC-II-binding T-cell epitope 5′-[…]-3′ and a pharmaceutical acceptable carrier is administered orally to mice for 4 weeks. Two weeks after the last dose, blood is drawn from a peripheral vein and CD4+ T cells are purified by cell sorting on magnetic beads. CD4+ T-cells are added to culture medium in which histocompatible dendritic cells, used as antigen presenting cells, are incubated with either the peptide sequence or with tetanus toxoid as a control for 2 hr at room temperature. The cells are then washed and purified CD4+ T-cells are added to culture medium. […] Incubation of CD4+ T-cells with dendritic cells loaded with the hazelnut Cor_i_9 antigen results in dendritic cell apoptosis.

[2] = Single allergen subcutaneous immunotherapy in walnut and hazelnut allergic subjects; type: in vivo
[3] = system: IgE; test: ALEX2 chip ELISA-based multiplex assay for IgE binding to allergens; parameters: species or system human
From the text: In another example, forty-two human serum samples with self-reported clinical allergies were obtained and analyzed in triplicate on an ALEX2 chip (developed by Macro Array Diagnostics), which enables an ELISA-based multiplex assay for the detection of IgE adsorption to allergen components and extracts. […] The assay detects the binding of IgE to these allergens in an ELISA-based multiplex fashion. The dynamic range of the chip spans a little over two orders of magnitude, 0.3-50 kUA/L.

In the case of HWNLNAHSVVYALRG, the “apoptosis of antigen-presenting dendritic cells by CD4+ T cells” value [1] is reported as “induce apoptosis of dendritic cells presenting the Cor_i_9 antigen” and the “allergic reaction after immunotherapy” value [2] is reported as “fail to react to both walnuts and hazelnuts”.

B1: Bet v 1: Silver birch allergen, Bet v 1 family, recombinant allergen on ALEX2 chip (protein)
chain: GVFNYETETTSVIPAARLFKAFILDGDNLFPKVAPQAISSVENIEGNGGPGTIKKISFPEGFPFKYVKDRVDEVDHTNFKYNYSVIEGGPIGDTLEKISNEIKIVATPDGGSILKISNKYHTKGDHEVKAEQVKASKEMGETLLRAVESYLLAHSDAYN
For B1, the “samples with a positive value for the allergen” value ([3]; of forty two human serum samples run on the ALEX2 chip) was 22 samples.

B2: Mal d 1: Apple allergen, Bet v 1 family, on ALEX2 chip (protein, UniProt P43211 2-159, looked up)
Major allergen Mal d 1: GVYTFENEFTSEIPPSRLFKAFVLDADNLIPKIAPQAIKQAEILEGNGGPGTIKKITFGEGSQYGYVKHRIDSIDEASYSYSYTLIEGDALTDTIEKISYETKLVACGSGSTIKSISHYHTKGNIEIKEEHVKVGKEKAHGLFKLIESYLKDHPDAYN
For B2, the “Pearson Correlation coefficient based on ALEX data” value ([3]; Bet v 1 family, correlation of IgE levels with Bet v 1, 22 Bet v 1-positive human serum samples) was 0.62.

B3: Derp: European house dust mite allergen, Tropomyosin family, on ALEX2 chip (protein, UniProt O18416 1-284, looked up)
Tropomyosin: MEAIKNKMQAMKLEKDNAIDRAEIAEQKARDANLRAEKSEEEVRALQKKIQQIENELDQVQEQLSAANTKLEEKEKALQTAEGDVAALNRRIQLIEEDLERSEERLKIATAKLEEASQSADESERMRKMLEHRSITDEERMEGLENQLKEARMMAEDADRKYDEVARKLAMVEADLERAEERAETGESKIVELEEELRVVGNNLKSLEVSEEKAQQREEAHEQQIRIMTTKLKEAEARAEFAERSVQKLQKEVGRLEDELVHEKEKYKSISDELDQTFAELTGY
modifications: tropomyosin
notes: European house dust mite allergen, Tropomyosin family, on ALEX2 chip
For B3, the “Pearson Correlation coefficient based on ALEX data” value ([3]; Tropomyosin family, correlation of IgE levels with Penm1) was 0.99.
